Reference: patent US20090317414A1 (4G VACCINES, published 2009)

B2: soluble H-2K^b (soluble extracellular domains; heavy chain residues 1-274 with C-terminal His-tag and β2-microglobulin residues 1-99) (other)
chain: GPHSLRYFVTAVSRPGLGEPRYMEVGYVDDTEFVRFDSDAENPRYEPRARWMEQEGPEYWERETQKAKGNEQSFRVDLRTLLGYYNQSKGGSHTIQVISGCEVGSDGRLLRGYQQYAYDGCDYIALNEDLKTWTAADMAALITKHKWEQAGEAERLRAYLEGTCVEWLRRYLKNGNATLLRTDSPKAHVTHHSRPEDKVTLRCWALGFYPADITLTWQLNGEELIQDMELVETRPAGDGTFQKWASVVVPLGKEQYYTCHVYHQGLPEPLTLRWEPPPSTVSNM

Legend:
[1] = molecular target: B2; assay: inhibition assay with soluble H-2K^b, 4° C.
[2] = molecular target: B2; assay: inhibition assay with soluble H-2K^b, 23° C.
[3] = molecular target: B2; assay: inhibition assay with soluble H-2K^b, 37° C.
[4] = molecular target: T1, MHC class I H-2K^b on RMA-S cells (C57BL/6 TAP2-deficient cells) (mouse, UniProt P01887 21-119; P01901 22-369); assay: peptide stabilisation assay on RMA-S cells, flow cytometry with anti-H-2K^b
T1 construct: whole, on cells; Cell surface H-2K^b stabilised by added peptide and detected with anti-H-2K^b antibody HB-158
T1 sequence (MHC heavy, looked up): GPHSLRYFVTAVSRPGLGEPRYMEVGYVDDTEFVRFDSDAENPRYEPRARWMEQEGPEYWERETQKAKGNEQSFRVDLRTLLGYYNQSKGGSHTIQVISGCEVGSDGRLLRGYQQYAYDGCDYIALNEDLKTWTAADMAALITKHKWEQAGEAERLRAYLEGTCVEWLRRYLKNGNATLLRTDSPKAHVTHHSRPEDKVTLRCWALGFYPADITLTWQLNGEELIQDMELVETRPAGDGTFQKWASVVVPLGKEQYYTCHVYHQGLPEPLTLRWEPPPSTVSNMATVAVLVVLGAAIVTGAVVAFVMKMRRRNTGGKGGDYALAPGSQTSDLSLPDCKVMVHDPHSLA
T1 sequence (b2m, looked up): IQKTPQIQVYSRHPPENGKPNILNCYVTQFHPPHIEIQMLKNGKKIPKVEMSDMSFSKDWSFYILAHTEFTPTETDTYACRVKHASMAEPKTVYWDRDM
Protocol: MHC class I molecules in the murine cell line RMA-S (C57BL/6 TAP2-deficient cells) can be used to measure the direct binding of peptides to class I molecules in vitro. […] The cells were washed once again and 100 μl (1:500 dilution) of FITC-conjugated sheep (Fab′)₂ anti-mouse immunoglobulin was added and incubated for 45 min at 4° C.; after further washing, cells were analyzed by FACScan.

[5] = molecular target: B2; assay: inhibition assay with soluble H-2K^b, 23° C.; remark: listed apart in the source
[6] = molecular target: B2; assay: inhibition assay with soluble H-2K^b, 23° C. and 37° C.
[7] = molecular target: SEV9 ([…]), Sendai virus NP324-332 (Sendai virus); assay: inhibition assay with soluble H-2K^b, 4° C.
[8] = molecular target: SEV9 ([…]), Sendai virus NP324-332 (Sendai virus); assay: inhibition assay with soluble H-2K^b, 23° C.
[9] = molecular target: SEV9 ([…]), Sendai virus NP324-332 (Sendai virus); assay: inhibition assay with soluble H-2K^b, 37° C.

SIINFEKL [OVA8 (SIINFEKL), Chicken ovalbumin257-264] showed a Kd [1] of 0.006 µM, a Kd [2] of 0.01 µM and a Kd [3] of 0.082 µM.

B1: MUC1-8 (SAPDTRPA) (peptide)
peptide: SAPDTRPA
notes: Synthetic peptide, purity >95%; also called MUC1-8 peptide; parent non-canonical peptide MUC1-8
B1 was tested, and the Kd [1] was 0.433 µM, the Kd [2] was 0.877 µM and the Kd [3] was 37 µM. For the same binder, the “peptide concentration that stabilised H-2K^b” value [4] was greater than 100000 nM.

SAPDFRPL (Synthetic peptide) [MUC1-8-5F8L (SAPDFRPL)] was tested, and the “fold increase in affinity against MUC1-8” value [5] was 14 fold, the Kd [1] was 0.16 µM and the Kd [2] was 0.06 µM. For the same binder, the Kd [3] was 0.3 µM and the “peptide concentration that stabilised H-2K^b” value [4] was greater than 1 nM.

SAPDFRPA (Synthetic peptide) [MUC1-8-5F (SAPDFRPA)] gave a Kd [1] of 0.46 µM, a Kd [2] of 0.13 µM and a Kd [3] of 4.9 µM. The “fold increase in affinity against MUC1-8” value [6] was no less than 7 fold and the “peptide concentration that stabilised H-2K^b” value [4] was greater than 100 nM.

With SAPDTRPL (Synthetic peptide) [MUC1-8-8L (SAPDTRPL)] the Kd [1] was 0.15 µM, the Kd [2] was 0.25 µM and the Kd [3] was 8.9 µM. For the same binder, the “fold increase in affinity against MUC1-8” value [6] was no less than 3 fold and the “peptide concentration that stabilised H-2K^b” value [4] was greater than 1000 nM.

For B2, the Kd [7] was 0.005 µM, the Kd [8] was 0.003 µM and the Kd [9] was 0.03 µM.
